Results: the supplement of paper PMC9112550, “Optimization of the antimicrobial peptide Bac7 by deep mutational scanning” (BMC Biology, 2022)
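Note: peptides expressed intracellularly from a pBAD plasmid library in pooled LB shake-flask culture, induced with 0.3% L-arabinose, DNA abundance read by NGS, three biological replicates, DESeq2 with apeglm shrinkage.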

The sequences below were run on Escherichia coli TOP10 (assay: shrunken log2 fold change of peptide-encoding DNA abundance (4.5 h post-induction vs induction); higher = less antimicrobial activity (less host growth inhibition)). Conditions: time post-induction: 4.5 h; library: site-saturation at positions 5, 18, 19, 20.
RRIRTRPPRLPRPRPRPVELPRP was tested, and the “shrunken log2 fold change” value was -0.0533.
With RRIRSRPPRLPRPRPRPPPYPRP the “shrunken log2 fold change” value was 0.337.
RRIRNRPPRLPRPRPRPLQLPRP was tested, and the “shrunken log2 fold change” value was -0.288.
RRIRVRPPRLPRPRPRPNATPRP was tested, and the “shrunken log2 fold change” value was 0.172.
With RRIRMRPPRLPRPRPRPKGLPRP the “shrunken log2 fold change” value was -0.0628.
For RRIRMRPPRLPRPRPRPASKPRP, the “shrunken log2 fold change” value was 0.0582.
In the case of RRIRIRPPRLPRPRPRPNGEPRP, the “shrunken log2 fold change” value is reported as -0.0757.
RRIRGRPPRLPRPRPRPVMCPRP was tested, and the “shrunken log2 fold change” value was 0.522.
With RRIRMRPPRLPRPRPRPKKNPRP the “shrunken log2 fold change” value was 1.46.
RRIRDRPPRLPRPRPRPKDSPRP was tested, and the “shrunken log2 fold change” value was -0.0525.
For RRIRQRPPRLPRPRPRPYAHPRP, the “shrunken log2 fold change” value was -0.249.
RRIRDRPPRLPRPRPRPINPPRP was tested, and the “shrunken log2 fold change” value was -0.277.
For RRIRSRPPRLPRPRPRPSLWPRP, the “shrunken log2 fold change” value was 0.122.
In the case of RRIRGRPPRLPRPRPRPCNHPRP, the “shrunken log2 fold change” value is reported as -0.402.
With RRIRTRPPRLPRPRPRPICEPRP the “shrunken log2 fold change” value was 0.0143.
With RRIRWRPPRLPRPRPRPMAVPRP the “shrunken log2 fold change” value was 0.173.
With RRIRGRPPRLPRPRPRPGKAPRP the “shrunken log2 fold change” value was 0.529.
For RRIRARPPRLPRPRPRPLFDPRP, the “shrunken log2 fold change” value was 0.28.
In the case of RRIRARPPRLPRPRPRPQLYPRP, the “shrunken log2 fold change” value is reported as 0.0997.
With RRIRPRPPRLPRPRPRPCIAPRP the “shrunken log2 fold change” value was 0.00774.
For RRIRDRPPRLPRPRPRPIIPPRP, the “shrunken log2 fold change” value was -0.644.
RRIRNRPPRLPRPRPRPFSEPRP was tested, and the “shrunken log2 fold change” value was -0.0347.
In the case of RRIRIRPPRLPRPRPRPICRPRP, the “shrunken log2 fold change” value is reported as -0.107.
With RRIRHRPPRLPRPRPRPHCHPRP the “shrunken log2 fold change” value was -0.551.
For RRIRWRPPRLPRPRPRPCALPRP, the “shrunken log2 fold change” value was -0.321.
With RRIRQRPPRLPRPRPRPLTRPRP the “shrunken log2 fold change” value was 0.424.
For RRIRYRPPRLPRPRPRPQRDPRP, the “shrunken log2 fold change” value was -0.256.
In the case of RRIRCRPPRLPRPRPRPATYPRP, the “shrunken log2 fold change” value is reported as -0.389.
In the case of RRIRGRPPRLPRPRPRPQEPPRP, the “shrunken log2 fold change” value is reported as 0.134.
With RRIRDRPPRLPRPRPRPPECPRP the “shrunken log2 fold change” value was 0.0841.
With RRIRCRPPRLPRPRPRPNCNPRP the “shrunken log2 fold change” value was -0.375.
For RRIRDRPPRLPRPRPRPFFVPRP, the “shrunken log2 fold change” value was 0.0823.
For RRIRYRPPRLPRPRPRPKTGPRP, the “shrunken log2 fold change” value was -0.243.
In the case of RRIRTRPPRLPRPRPRPQENPRP, the “shrunken log2 fold change” value is reported as -0.165.
RRIRNRPPRLPRPRPRPKTDPRP was tested, and the “shrunken log2 fold change” value was -0.206.
For RRIRQRPPRLPRPRPRPVKVPRP, the “shrunken log2 fold change” value was -0.00987.
For RRIRPRPPRLPRPRPRPYHWPRP, the “shrunken log2 fold change” value was -0.449.
With RRIRNRPPRLPRPRPRPPKFPRP the “shrunken log2 fold change” value was -0.0082.
In the case of RRIRNRPPRLPRPRPRPHYKPRP, the “shrunken log2 fold change” value is reported as -0.333.
With RRIRHRPPRLPRPRPRPDKAPRP the “shrunken log2 fold change” value was -0.468.
With RRIRKRPPRLPRPRPRPLHMPRP the “shrunken log2 fold change” value was 0.102.
With RRIRQRPPRLPRPRPRPGAFPRP the “shrunken log2 fold change” value was -0.158.
In the case of RRIRMRPPRLPRPRPRPPQMPRP, the “shrunken log2 fold change” value is reported as 0.594.
RRIRERPPRLPRPRPRPPGMPRP was tested, and the “shrunken log2 fold change” value was 0.0408.
For RRIRLRPPRLPRPRPRPCGLPRP, the “shrunken log2 fold change” value was 0.142.
With RRIRPRPPRLPRPRPRPMRKPRP the “shrunken log2 fold change” value was 0.365.
For RRIRSRPPRLPRPRPRPHSTPRP, the “shrunken log2 fold change” value was -0.312.
With RRIRERPPRLPRPRPRPSSMPRP the “shrunken log2 fold change” value was -0.284.
For RRIRARPPRLPRPRPRPMDHPRP, the “shrunken log2 fold change” value was 0.267.
With RRIRWRPPRLPRPRPRPLCMPRP the “shrunken log2 fold change” value was -0.177.
With RRIRGRPPRLPRPRPRPSTVPRP the “shrunken log2 fold change” value was 0.164.
For RRIRFRPPRLPRPRPRPFRMPRP, the “shrunken log2 fold change” value was -0.173.
RRIRARPPRLPRPRPRPVFEPRP was tested, and the “shrunken log2 fold change” value was 0.41.
With RRIRLRPPRLPRPRPRPMCLPRP the “shrunken log2 fold change” value was -0.166.
In the case of RRIRWRPPRLPRPRPRPRREPRP, the “shrunken log2 fold change” value is reported as 0.427.
In the case of RRIRTRPPRLPRPRPRPWIFPRP, the “shrunken log2 fold change” value is reported as -0.0415.
With RRIRWRPPRLPRPRPRPIDVPRP the “shrunken log2 fold change” value was -0.298.
With RRIRCRPPRLPRPRPRPQDKPRP the “shrunken log2 fold change” value was -0.579.
With RRIRCRPPRLPRPRPRPFCFPRP the “shrunken log2 fold change” value was -0.0725.
RRIRIRPPRLPRPRPRPCQHPRP was tested, and the “shrunken log2 fold change” value was -0.183.
For RRIRMRPPRLPRPRPRPKHEPRP, the “shrunken log2 fold change” value was 0.767.
RRIRGRPPRLPRPRPRPACAPRP was tested, and the “shrunken log2 fold change” value was 1.13.
For RRIRWRPPRLPRPRPRPYHTPRP, the “shrunken log2 fold change” value was -0.816.
With RRIRQRPPRLPRPRPRPRELPRP the “shrunken log2 fold change” value was 0.0285.
With RRIRCRPPRLPRPRPRPAVSPRP the “shrunken log2 fold change” value was -0.345.
In the case of RRIRGRPPRLPRPRPRPSAAPRP, the “shrunken log2 fold change” value is reported as 2.09.
For RRIRYRPPRLPRPRPRPTTYPRP, the “shrunken log2 fold change” value was -0.941.
In the case of RRIRKRPPRLPRPRPRPGHPPRP, the “shrunken log2 fold change” value is reported as 0.943.
RRIRCRPPRLPRPRPRPAVHPRP was tested, and the “shrunken log2 fold change” value was 0.0826.
With RRIRPRPPRLPRPRPRPQDYPRP the “shrunken log2 fold change” value was -0.0245.
With RRIRDRPPRLPRPRPRPHRKPRP the “shrunken log2 fold change” value was 0.00895.
In the case of RRIRDRPPRLPRPRPRPRGTPRP, the “shrunken log2 fold change” value is reported as -0.217.
For RRIRFRPPRLPRPRPRPSGCPRP, the “shrunken log2 fold change” value was -0.0116.
With RRIRHRPPRLPRPRPRPPNTPRP the “shrunken log2 fold change” value was -0.0573.
In the case of RRIRCRPPRLPRPRPRPTEPPRP, the “shrunken log2 fold change” value is reported as 0.305.
RRIRMRPPRLPRPRPRPWCAPRP was tested, and the “shrunken log2 fold change” value was 0.204.
RRIRGRPPRLPRPRPRPSDWPRP was tested, and the “shrunken log2 fold change” value was 0.251.
In the case of RRIRMRPPRLPRPRPRPQFRPRP, the “shrunken log2 fold change” value is reported as -0.235.
For RRIRSRPPRLPRPRPRPHLHPRP, the “shrunken log2 fold change” value was -0.177.
In the case of RRIRQRPPRLPRPRPRPNVHPRP, the “shrunken log2 fold change” value is reported as -0.258.
RRIRIRPPRLPRPRPRPLVRPRP was tested, and the “shrunken log2 fold change” value was 0.0548.
RRIRCRPPRLPRPRPRPVEWPRP was tested, and the “shrunken log2 fold change” value was 0.000166.
In the case of RRIRLRPPRLPRPRPRPKEPPRP, the “shrunken log2 fold change” value is reported as -0.0333.
In the case of RRIRARPPRLPRPRPRPGYLPRP, the “shrunken log2 fold change” value is reported as 0.0801.
For RRIRFRPPRLPRPRPRPVVWPRP, the “shrunken log2 fold change” value was 0.408.
With RRIRFRPPRLPRPRPRPAWTPRP the “shrunken log2 fold change” value was -0.0896.
RRIRNRPPRLPRPRPRPKAWPRP was tested, and the “shrunken log2 fold change” value was 0.133.
For RRIRLRPPRLPRPRPRPRYYPRP, the “shrunken log2 fold change” value was -0.103.
In the case of RRIRYRPPRLPRPRPRPNHWPRP, the “shrunken log2 fold change” value is reported as -0.4.
RRIRHRPPRLPRPRPRPMLKPRP was tested, and the “shrunken log2 fold change” value was -0.164.
In the case of RRIRKRPPRLPRPRPRPLAVPRP, the “shrunken log2 fold change” value is reported as 0.0855.
RRIRHRPPRLPRPRPRPCFQPRP was tested, and the “shrunken log2 fold change” value was -0.558.
With RRIRARPPRLPRPRPRPAICPRP the “shrunken log2 fold change” value was 0.252.
With RRIRHRPPRLPRPRPRPYLSPRP the “shrunken log2 fold change” value was -0.221.
With RRIRKRPPRLPRPRPRPSRKPRP the “shrunken log2 fold change” value was 0.0758.
RRIRIRPPRLPRPRPRPRQIPRP was tested, and the “shrunken log2 fold change” value was -0.212.
With RRIRWRPPRLPRPRPRPKSWPRP the “shrunken log2 fold change” value was 0.389.
RRIRIRPPRLPRPRPRPQESPRP was tested, and the “shrunken log2 fold change” value was -0.617.
RRIRSRPPRLPRPRPRPPPWPRP was tested, and the “shrunken log2 fold change” value was 0.651.
RRIRDRPPRLPRPRPRPTRCPRP was tested, and the “shrunken log2 fold change” value was 1.35.
With RRIRNRPPRLPRPRPRPILAPRP the “shrunken log2 fold change” value was -0.264.
RRIRSRPPRLPRPRPRPDYLPRP was tested, and the “shrunken log2 fold change” value was -0.0749.
In the case of RRIRERPPRLPRPRPRPHCTPRP, the “shrunken log2 fold change” value is reported as -0.0432.
In the case of RRIRRRPPRLPRPRPRPCAQPRP, the “shrunken log2 fold change” value is reported as -0.0794.
In the case of RRIRNRPPRLPRPRPRPRQAPRP, the “shrunken log2 fold change” value is reported as 0.0453.
For RRIRNRPPRLPRPRPRPKVWPRP, the “shrunken log2 fold change” value was 0.68.
For RRIRWRPPRLPRPRPRPKEDPRP, the “shrunken log2 fold change” value was 0.0809.
RRIRRRPPRLPRPRPRPQAVPRP was tested, and the “shrunken log2 fold change” value was 0.331.
With RRIRKRPPRLPRPRPRPYWGPRP the “shrunken log2 fold change” value was -0.000921.
For RRIRIRPPRLPRPRPRPESDPRP, the “shrunken log2 fold change” value was 0.052.
For RRIRNRPPRLPRPRPRPHGCPRP, the “shrunken log2 fold change” value was -0.0193.
In the case of RRIRLRPPRLPRPRPRPNRTPRP, the “shrunken log2 fold change” value is reported as 0.0829.
In the case of RRIRPRPPRLPRPRPRPMVLPRP, the “shrunken log2 fold change” value is reported as 0.0636.
With RRIRMRPPRLPRPRPRPGHAPRP the “shrunken log2 fold change” value was 2.85.
For RRIRKRPPRLPRPRPRPPFEPRP, the “shrunken log2 fold change” value was 0.143.
RRIRQRPPRLPRPRPRPNGGPRP was tested, and the “shrunken log2 fold change” value was 0.00705.
With RRIRARPPRLPRPRPRPMEHPRP the “shrunken log2 fold change” value was -0.223.
In the case of RRIRIRPPRLPRPRPRPIFYPRP, the “shrunken log2 fold change” value is reported as -0.775.
For RRIRVRPPRLPRPRPRPEMYPRP, the “shrunken log2 fold change” value was -0.19.
In the case of RRIRSRPPRLPRPRPRPCMFPRP, the “shrunken log2 fold change” value is reported as -0.258.
RRIRDRPPRLPRPRPRPMYYPRP was tested, and the “shrunken log2 fold change” value was -0.535.
For RRIRMRPPRLPRPRPRPPAAPRP, the “shrunken log2 fold change” value was 2.78.
In the case of RRIRNRPPRLPRPRPRPSMQPRP, the “shrunken log2 fold change” value is reported as -0.152.
In the case of RRIRKRPPRLPRPRPRPMFDPRP, the “shrunken log2 fold change” value is reported as 0.166.
RRIRYRPPRLPRPRPRPLHAPRP was tested, and the “shrunken log2 fold change” value was 0.000596.
